Measurements taken from US20030157712A1, “Methods for determining cell responses through EphB receptors” (priority 1997, published 2003).

T1: EphB1 (Homo sapiens, UniProt P54762)
T1 construct: Ligand stimulation and immunoprecipitation of endogenous EphB receptors; endogenous in cells; host or cells: HRMEC (human); P19 (murine teratocarcinoma) in part of the results
T1 sequence (P54762 18-984): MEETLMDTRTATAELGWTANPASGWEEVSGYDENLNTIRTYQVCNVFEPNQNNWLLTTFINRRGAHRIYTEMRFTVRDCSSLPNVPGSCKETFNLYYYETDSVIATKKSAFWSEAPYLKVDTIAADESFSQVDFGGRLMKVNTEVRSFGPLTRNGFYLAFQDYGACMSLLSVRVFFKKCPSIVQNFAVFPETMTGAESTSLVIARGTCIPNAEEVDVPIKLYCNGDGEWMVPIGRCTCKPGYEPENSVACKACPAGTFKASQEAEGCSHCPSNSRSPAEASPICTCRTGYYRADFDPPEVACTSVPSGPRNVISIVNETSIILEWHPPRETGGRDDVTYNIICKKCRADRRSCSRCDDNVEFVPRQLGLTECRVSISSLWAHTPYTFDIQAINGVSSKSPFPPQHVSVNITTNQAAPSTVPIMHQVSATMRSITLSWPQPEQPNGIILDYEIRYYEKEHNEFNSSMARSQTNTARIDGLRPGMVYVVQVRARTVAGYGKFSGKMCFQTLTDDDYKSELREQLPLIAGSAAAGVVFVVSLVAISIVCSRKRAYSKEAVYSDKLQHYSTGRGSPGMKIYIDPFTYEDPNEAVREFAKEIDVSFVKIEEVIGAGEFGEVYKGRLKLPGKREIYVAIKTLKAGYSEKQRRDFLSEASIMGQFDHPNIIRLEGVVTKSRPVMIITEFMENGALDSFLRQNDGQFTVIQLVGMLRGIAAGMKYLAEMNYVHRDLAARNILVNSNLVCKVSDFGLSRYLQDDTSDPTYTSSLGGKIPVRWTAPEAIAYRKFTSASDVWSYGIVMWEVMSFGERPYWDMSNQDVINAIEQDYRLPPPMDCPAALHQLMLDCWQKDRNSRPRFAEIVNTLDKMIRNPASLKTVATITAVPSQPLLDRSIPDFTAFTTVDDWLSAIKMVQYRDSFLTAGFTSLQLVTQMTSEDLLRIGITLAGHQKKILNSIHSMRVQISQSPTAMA


Assays:
HUVEC [1] = assay: Two dimensional capillary-like assembly assay (HUVEC); assay type: cell-based, human; conditions: Matrigel-coated surfaces, defined medium; vascular bed comparison
Experimental: (§1) For these studies, HRMEC or HUVEC were plated on Matrigel-coated surfaces in defined medium in a two dimensional capillary-like assembly assay. Ephrin-B1 promoted capillary-like assembly of HRMEC, but not HUVEC, while ephrin-A1 promoted assembly of HUVEC but not HRMEC, in identical media at concentrations appropriate for their respective affinities for EphB1 and EphA2. In each cell type, ephrin-B1 and ephrin-A1 promoted tyrosine phosphorylation of 130 kDa EphB1 and EphA2, both of which are expressed in each system.

HUVEC [2] = conditions: background art; cited from earlier work
HRMEC [3] = conditions: background art; cited from earlier work
α5β1 integrin = assay: Surface biotinylation and integrin immunoprecipitation (HEK293); assay type: cell-based, human; conditions: 60 min on coated dishes
Experimental: (§2) Surface biotinylation and integrin immunoprecipitation. To determine if surface integrin expression was altered by transfection and/or exposure to ephrinB1/Fc, cells were biotinylated for 30 min at 4° C. with 0.5 mg/ml Sulfo-NHS-LC-Biotin (Pierce, Rockford, Ill.) before plating onto 60 mm dishes coated with nitrocellulose, fibrinogen and EphrinB1/Fc. After a 60 min incubation at 37° C., cells were harvested in WG buffer (15) and immunoprecipitation performed with 2 ug of the integrin antibodies used in the competition experiments. After SDS-PAGE (non-reducing conditions) and Western blotting, biotinylated proteins were detected by enhanced chemiluminescence using ECL Western Blotting Detection (Amersham).

αvβ3 integrin = assay: Surface biotinylation and integrin immunoprecipitation (endothelial cells); assay type: cell-based, human; conditions: 60 min on coated dishes
Experimental: as §2

EphB1 = target: T1, EphB1; assay: EphB1 immunoprecipitation and phosphotyrosine immunoblot; assay type: cell-based; conditions: in each cell type (HRMEC, HUVEC)
HRMEC [4] = assay: Endothelial assembly into capillary-like structures (HRMEC); assay type: cell-based, human; conditions: Matrigel-coated surfaces, defined medium; vascular bed comparison
Experimental: Endothelial assembly into capillary-like structures. Twelve well plates (Falcon) were coated with thin layers of Matrigel. HRMEC were plated at a density of 4×10^4 cells/well in DME containing 1% fetal bovine serum. Indicated agonists, control peptides, alone, or in combination with the EphB1/Fc antagonist (1000 ng ml^−1) (FIG. 5) were added at the time of plating. Cells were incubated at 37° C. for 8 h and photographed using phase microscopy (magnification 100×) (Diaphot-TMD, Nikon).

HEK293 cells = assay: Solid phase cell attachment assay (HEK293); assay type: cell-based, human
Experimental: Cell culture and transfection. Human embryonic kidney cells, HEK293, were passaged in minimum essential medium (Life Technologies) supplemented with 10% fetal bovine serum (Hyclone Laboratories, Logan, Utah). HRMEC were cultured as described (12). HEK293 cells were transfected with Lipofectamine Plus (Life Technologies) as described by the manufacturer. The expression constructs pSRα-hEphB1-HA, pSRα-hEphB1-HA-K652R, pSRα-hEphB1-HA-Y596F and pSRα-hEphB1-HA-Y929F have been described previously (45,46). Cell attachment assays were performed 48 hours after transfection.
Solid phase cell attachment assays. Forty-eight-well plates (Falcon) were coated with a layer of nitrocellulose (Schleicher & Schuell) and allowed to air dry as described (47). Coated wells were incubated overnight at 4° C. with PBS containing matrix proteins at the indicated concentrations alone (no addition, NA) or in combination with dimeric EphrinB1/Fc. Two hours prior to assay, wells were washed twice then blocked at 37° C. with 1% BSA. Serum starved cells were harvested in 2 mM EDTA in PBS (HEK293) or recovered by trypsinization (HRMEC), washed twice in serum free medium containing 1% BSA, then plated at a density of 0.7-1×10^5 cells per well. […] Adherent cells were fixed with 2% glutaraldehyde, stained with 0.5% crystal violet (in EtOH), and quantified by OD reading at 570 nm. […]

EphA2 = target: T2, EphA2 (Homo sapiens, UniProt P29317); assay: EphA2 tyrosine phosphorylation in endothelial cells; assay type: cell-based; conditions: in each cell type (HRMEC, HUVEC)
T2 construct: 130 kDa EphB1 and EphA2, both of which are expressed in each system; endogenous in cells; host or cells: HRMEC and HUVEC
Experimental: as §1

| tyrosine phosphorylation of 130 kDa EphB1 (EphB1) | tyrosine phosphorylation of 130 kDa EphA2 (EphA2) | Molecule | capillary-like assembly of HUVEC (HUVEC [1]) | capillary-like assembly of HUVEC (reference 8) (HUVEC [2]) | assembly of HRMEC into capillary-like structures (reference 8) (HRMEC [3]) | surface expression of HEK293 α5β1 integrin (α5β1 integrin) | surface expression of endothelial αvβ3 integrin (αvβ3 integrin) | capillary-like assembly of HRMEC (HRMEC [4]) | attachment to fibrinogen of HEK293 cells transiently expressing EphB1 (HEK293 cells; 48 hours after transfection) | attachment to fibrinogen or RGD peptide of untransfected HEK293 cells (HEK293 cells; basal conditions, no endogenous EphB1 or EphB2) |
| --- | --- | --- | --- | --- | --- | --- | --- | --- | --- | --- |
| promoted |  | Ephrin-B1: transmembrane ligand of EphB subclass receptors (protein) LAKNLEPVSWSSLNPKFLSGKGLVIYPKIGDKLDIICPRAEAGRPYEYYKLYLVRPEQAAACSTVLDPNVLVTCNRPEQEIRFTIKFQEFSPNYMGLEFKKHHDYYITSTSNGSLEGLENREGGVCRTRTMKIIMKVGQDPNAVTPEQLTTSRPSKEADNTVKMATQAPGSRGSLGDSDGKHETVNQEEKSGPGASGGSSGDPDGFFNSK | not | not responsive | promotes | did not increase | did not increase | promoted | increases in attachment | no ephrin-B1 dependent change |
|  | promoted | ephrin-A1: GPI-linked membrane protein, primary ligand for EphA2 (Eck) (protein) DRHTVFWNSSNPKFRNEDYTIHVQLNDYVDIICPHYEDHSVADAAMEQYILYLVEHEEYQLCQPQSKDQVRWQCNRPSAKHGPEKLSEKFQRFTPFTLGKEFKEGHSYYYISKPIHQHEDRCLRLKVTVSGKITHSPQAHDNPQEKRLAADDPEVRVLHSIGHS | promoted | promotes | no capillary-assembly activity |  |  | not |  |  |
